{"source": "IntAct's records for PubMed 19624469", "parents": {"B1": {"name": "Protein phosphatase 2C 16 (Arabidopsis thaliana (Mouse-ear cress)), Q9CAJ0 (parent)", "chain": "MEEMTPAVAMTLSLAANTMCESSPVEITQLKNVTDAADLLSDSENQSFCNGGTECTMEDVSELEEVGEQDLLKTLSDTRSGSSNVFDEDDVLSVVEDNSAVISEGLLVVDAGSELSLSNTAMEIDNGRVLATAIIVGESSIEQVPTAEVLIAGVNQDTNTSEVVIRLPDENSNHLVKGRSVYELDCIPLWGTVSIQGNRSEMEDAFAVSPHFLKLPIKMLMGDHEGMSPSLTHLTGHFFGVYDGHGGHKVADYCRDRLHFALAEEIERIKDELCKRNTGEGRQVQWDKVFTSCFLTVDGEIEGKIGRAVVGSSDKVLEAVASETVGSTAVVALVCSSHIVVSNCGDSRAVLFRGKEAMPLSVDHKPDREDEYARIENAGGKVIQWQGARVFGVLAMSRSIGDRYLKPYVIPEPEVTFMPRSREDECLILASDGLWDVMNNQEVCEIARRRILMWHKKNGAPPLAERGKGIDPACQAAADYLSMLALQKGSKDNISIIVIDLKAQRKFKTRT", "partner": "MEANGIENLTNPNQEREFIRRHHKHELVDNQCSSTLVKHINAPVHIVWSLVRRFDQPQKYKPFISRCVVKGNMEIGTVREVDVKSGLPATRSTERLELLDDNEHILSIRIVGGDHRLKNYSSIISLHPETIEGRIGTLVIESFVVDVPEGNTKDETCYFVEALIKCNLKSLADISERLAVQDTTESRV"}, "B2": {"name": "Protein phosphatase 2C 16 (Arabidopsis thaliana (Mouse-ear cress)), Q9CAJ0 (parent)", "chain": "B1 chain", "partner": "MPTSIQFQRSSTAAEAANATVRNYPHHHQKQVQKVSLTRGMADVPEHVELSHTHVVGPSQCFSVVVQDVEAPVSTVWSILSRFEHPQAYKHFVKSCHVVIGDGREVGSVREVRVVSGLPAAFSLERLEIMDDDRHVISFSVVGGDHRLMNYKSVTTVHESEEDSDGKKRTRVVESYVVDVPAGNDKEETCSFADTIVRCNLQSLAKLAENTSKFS"}, "B3": {"name": "Protein phosphatase 2C 16 (Arabidopsis thaliana (Mouse-ear cress)), Q9CAJ0 (parent)", "chain": "B1 chain", "partner": "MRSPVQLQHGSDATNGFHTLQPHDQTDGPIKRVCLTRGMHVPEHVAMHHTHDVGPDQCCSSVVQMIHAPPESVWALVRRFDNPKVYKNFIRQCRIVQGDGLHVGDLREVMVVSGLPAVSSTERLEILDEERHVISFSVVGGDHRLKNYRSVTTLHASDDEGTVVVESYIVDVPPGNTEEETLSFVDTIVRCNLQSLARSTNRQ"}, "B4": {"name": "Protein phosphatase 2C 16 (Arabidopsis thaliana (Mouse-ear cress)), Q9CAJ0 (parent)", "chain": "B1 chain", "partner": "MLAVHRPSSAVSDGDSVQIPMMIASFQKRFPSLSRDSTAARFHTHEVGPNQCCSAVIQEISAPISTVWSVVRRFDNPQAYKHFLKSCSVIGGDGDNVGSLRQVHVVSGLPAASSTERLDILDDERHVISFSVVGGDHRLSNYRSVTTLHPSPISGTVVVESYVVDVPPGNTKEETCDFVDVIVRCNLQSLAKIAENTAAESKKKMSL"}, "B5": {"name": "Protein phosphatase 2C 16 (Arabidopsis thaliana (Mouse-ear cress)), Q9CAJ0 (parent)", "chain": "B1 chain"}}}
{"variants_of": "B1", "conditions": "with pyl8_arath PYL8, Q9FGM1"}
{"variant": "MEEMTPAVAMTLSLAANTMCESSPVEITQLKNVTDAADLLSDSENQSFCNGGTECTMEDVSELEEVGEQDLLKTLSDTRSGSSNVFDEDDVLSVVEDNSAVISEGLLVVDAGSELSLSNTAMEIDNGRVLATAIIVGESSIEQVPTAEVLIAGVNQDTNTSEVVIRLPDENSNHLVKGRSVYELDCIPLWGTVSIQGNRSEMEDAFAVSPHFLKLPIKMLMGDHEGMSPSLTHLTGHFFGVYDGHDGHKVADYCRDRLHFALAEEIERIKDELCKRNTGEGRQVQWDKVFTSCFLTVDGEIEGKIGRAVVGSSDKVLEAVASETVGSTAVVALVCSSHIVVSNCGDSRAVLFRGKEAMPLSVDHKPDREDEYARIENAGGKVIQWQGARVFGVLAMSRSIGDRYLKPYVIPEPEVTFMPRSREDECLILASDGLWDVMNNQEVCEIARRRILMWHKKNGAPPLAERGKGIDPACQAAADYLSMLALQKGSKDNISIIVIDLKAQRKFKTRT", "note": "[G246D]", "effect of a mutation on the interaction": "disrupting interaction"}
{"variants_of": "B2", "conditions": "with pyl6_arath PYL6, Q8S8E3"}
{"variant": "MEEMTPAVAMTLSLAANTMCESSPVEITQLKNVTDAADLLSDSENQSFCNGGTECTMEDVSELEEVGEQDLLKTLSDTRSGSSNVFDEDDVLSVVEDNSAVISEGLLVVDAGSELSLSNTAMEIDNGRVLATAIIVGESSIEQVPTAEVLIAGVNQDTNTSEVVIRLPDENSNHLVKGRSVYELDCIPLWGTVSIQGNRSEMEDAFAVSPHFLKLPIKMLMGDHEGMSPSLTHLTGHFFGVYDGHDGHKVADYCRDRLHFALAEEIERIKDELCKRNTGEGRQVQWDKVFTSCFLTVDGEIEGKIGRAVVGSSDKVLEAVASETVGSTAVVALVCSSHIVVSNCGDSRAVLFRGKEAMPLSVDHKPDREDEYARIENAGGKVIQWQGARVFGVLAMSRSIGDRYLKPYVIPEPEVTFMPRSREDECLILASDGLWDVMNNQEVCEIARRRILMWHKKNGAPPLAERGKGIDPACQAAADYLSMLALQKGSKDNISIIVIDLKAQRKFKTRT", "note": "[G246D]", "effect of a mutation on the interaction": "disrupting interaction"}
{"variants_of": "B3", "conditions": "with pyl5_arath PYL5, Q9FLB1"}
{"variant": "MEEMTPAVAMTLSLAANTMCESSPVEITQLKNVTDAADLLSDSENQSFCNGGTECTMEDVSELEEVGEQDLLKTLSDTRSGSSNVFDEDDVLSVVEDNSAVISEGLLVVDAGSELSLSNTAMEIDNGRVLATAIIVGESSIEQVPTAEVLIAGVNQDTNTSEVVIRLPDENSNHLVKGRSVYELDCIPLWGTVSIQGNRSEMEDAFAVSPHFLKLPIKMLMGDHEGMSPSLTHLTGHFFGVYDGHDGHKVADYCRDRLHFALAEEIERIKDELCKRNTGEGRQVQWDKVFTSCFLTVDGEIEGKIGRAVVGSSDKVLEAVASETVGSTAVVALVCSSHIVVSNCGDSRAVLFRGKEAMPLSVDHKPDREDEYARIENAGGKVIQWQGARVFGVLAMSRSIGDRYLKPYVIPEPEVTFMPRSREDECLILASDGLWDVMNNQEVCEIARRRILMWHKKNGAPPLAERGKGIDPACQAAADYLSMLALQKGSKDNISIIVIDLKAQRKFKTRT", "note": "[G246D]", "effect of a mutation on the interaction": "disrupting interaction"}
{"variants_of": "B4", "conditions": "with pyl4_arath PYL4, O80920"}
{"variant": "MEEMTPAVAMTLSLAANTMCESSPVEITQLKNVTDAADLLSDSENQSFCNGGTECTMEDVSELEEVGEQDLLKTLSDTRSGSSNVFDEDDVLSVVEDNSAVISEGLLVVDAGSELSLSNTAMEIDNGRVLATAIIVGESSIEQVPTAEVLIAGVNQDTNTSEVVIRLPDENSNHLVKGRSVYELDCIPLWGTVSIQGNRSEMEDAFAVSPHFLKLPIKMLMGDHEGMSPSLTHLTGHFFGVYDGHDGHKVADYCRDRLHFALAEEIERIKDELCKRNTGEGRQVQWDKVFTSCFLTVDGEIEGKIGRAVVGSSDKVLEAVASETVGSTAVVALVCSSHIVVSNCGDSRAVLFRGKEAMPLSVDHKPDREDEYARIENAGGKVIQWQGARVFGVLAMSRSIGDRYLKPYVIPEPEVTFMPRSREDECLILASDGLWDVMNNQEVCEIARRRILMWHKKNGAPPLAERGKGIDPACQAAADYLSMLALQKGSKDNISIIVIDLKAQRKFKTRT", "note": "[G246D]", "effect of a mutation on the interaction": "disrupting interaction"}
{"variants_of": "B5", "conditions": "with pyr1_arath PYR1, O49686"}
{"variant": "MEEMTPAVAMTLSLAANTMCESSPVEITQLKNVTDAADLLSDSENQSFCNGGTECTMEDVSELEEVGEQDLLKTLSDTRSGSSNVFDEDDVLSVVEDNSAVISEGLLVVDAGSELSLSNTAMEIDNGRVLATAIIVGESSIEQVPTAEVLIAGVNQDTNTSEVVIRLPDENSNHLVKGRSVYELDCIPLWGTVSIQGNRSEMEDAFAVSPHFLKLPIKMLMGDHEGMSPSLTHLTGHFFGVYDGHDGHKVADYCRDRLHFALAEEIERIKDELCKRNTGEGRQVQWDKVFTSCFLTVDGEIEGKIGRAVVGSSDKVLEAVASETVGSTAVVALVCSSHIVVSNCGDSRAVLFRGKEAMPLSVDHKPDREDEYARIENAGGKVIQWQGARVFGVLAMSRSIGDRYLKPYVIPEPEVTFMPRSREDECLILASDGLWDVMNNQEVCEIARRRILMWHKKNGAPPLAERGKGIDPACQAAADYLSMLALQKGSKDNISIIVIDLKAQRKFKTRT", "note": "[G246D]", "effect of a mutation on the interaction": "disrupting interaction"}
